# Measurements from patent publication US20240252614A1 (Pfizer, published 2024).
# Where two headings read alike, the source gives them in different places.
# B1: hMPV-2 mAb (antibody, V domains shown)
# VH: QVQLQQSGAEVKKPGASVKVSCKASGYTFTSYGISWVRQAPGQGLEWMGWISGYNGNTNYAQTFQGTFTMTTDTSTSTAYMELRRLRSGDTAVYYCARDRYYASGSYNGMDVWGQGTTVTVSS
# VL: QSALTQPPSASGAPGQRVTVSCSGSSSNVGSSSVYWYQQLPGTAPKLLIYRNNQRPSGVPDRFSGSKSGTSASLAISGLRSEDEADYYCAAWDDSLSGWVFGGGTKLTVLG
# notes: human IgG1
# Experiments:
# hMPV119 = molecular target: T1, hMPV119 (hMPV B, UniProt Q6WB98 19-102); assay: BLI, 56C stress
# T1 construct: T49I, T150C-R156C, A459P
# Method: (§1) All measurements were conducted at 30° C. temperature in 96-well black plates (Corning, Corning, NY) with a final volume of 240 μL per well at a constant agitation rate of 1000 RPM.
# (§2) Conformation integrity of hMPV B F protein mutants were evaluated by a thermal stress experiment. Crude cell culture supernatants were normalized based on the results of the titer quantitation and then incubated for 1 hour at room temperature and two higher temperatures. For the testing of hMPV B single mutants, the two temperatures were 53° C. and 56° C. After the incubation, the protein mutants were probed with prefusion specific monoclonal antibody hMPV-2 by OCTET HTX. Anti-Human IgG Fc Capture (AHC) biosensors were first equilibrated in PB before being dipped into more PB for to establish the initial baseline. Biosensors were incubated with hMPV-2 before being equilibrated in PB to establish the experimental baseline. The mAb-bound biosensors were then dipped into the thermal stresses cell culture supernatants for 5 minutes.
# hMPV130 = molecular target: T2, hMPV130 (hMPV B, UniProt Q6WB98 19-102); assay: BLI, 56C stress
# T2 construct: L141C-A161C, G239A, T411C-Q434C, A459P
# Method: as §1, §2
# hMPV118 = molecular target: T3, hMPV118 (hMPV B, UniProt Q6WB98 19-102); assay: BLI, 56C stress
# T3 construct: T49I, T150C-R156C
# Method: as §1, §2
# hMPV123 = molecular target: T4, hMPV123 (hMPV B, UniProt Q6WB98 19-102); assay: BLI, 56C stress
# T4 construct: A140C-S149C, G239A, T411C-Q434C
# Method: as §1, §2
# hMPV B F WT Control [1] = molecular target: T5, hMPV B F WT Control (hMPV B, UniProt Q6WB98 19-102); assay: BLI, 56C stress
# Method: as §1, §2
# hMPV101 = molecular target: T6, hMPV101 (hMPV B, UniProt Q6WB98 19-102); assay: BLI, 56C stress
# T6 construct: A140C-S149C
# Method: as §1, §2
# hMPV107 = molecular target: T7, hMPV107 (hMPV B, UniProt Q6WB98 19-102); assay: BLI, 56C stress
# T7 construct: S149T
# Method: as §1, §2
# hMPV100 = molecular target: T8, hMPV100 (hMPV B, UniProt Q6WB98 19-102); assay: BLI, 56C stress
# T8 construct: T411C-Q434C
# Method: as §1, §2
# hMPV102 = molecular target: T9, hMPV102 (hMPV B, UniProt Q6WB98 19-102); assay: BLI, 56C stress
# T9 construct: L141C-A161C
# Method: as §1, §2
# hMPV106 = molecular target: T10, hMPV106 (hMPV B, UniProt Q6WB98 19-102); assay: BLI, 56C stress
# T10 construct: T49I
# Method: as §1, §2
# hMPV108 = molecular target: T11, hMPV108 (hMPV B, UniProt Q6WB98 19-102); assay: BLI, 56C stress
# T11 construct: T365I
# Method: as §1, §2
# hMPV104 = molecular target: T12, hMPV104 (hMPV B, UniProt Q6WB98 19-102); assay: BLI, 56C stress
# T12 construct: A459P
# Method: as §1, §2
# hMPV105 = molecular target: T13, hMPV105 (hMPV B, UniProt Q6WB98 19-102); assay: BLI, 56C stress
# T13 construct: G239A
# Method: as §1, §2
# hMPV103 = molecular target: T14, hMPV103 (hMPV B, UniProt Q6WB98 19-102); assay: BLI, 56C stress
# T14 construct: E146C-T160C
# Method: as §1, §2
# hMPV B F WT Control [2] = molecular target: T5, hMPV B F WT Control; assay: BLI, 56C stress; remark: listed apart in the source
# Method: as §1, §2
# hMPV075 = molecular target: T15, hMPV075 (hMPV A, UniProt Q6WB98 19-102); assay: BLI, no stress
# T15 construct: L473F
# Method: (§3) The OCTET HTX (Sartorius, Gottingen, Germany) instrument was used to evaluate the expression and conformational integrity for each mutant. All measurements were conducted at 30° C. temperature in 96-well black plates (Corning, Corning, NY) with a final volume of 240 μL per well at a constant agitation rate of 1000 RPM.
# (§4) Conformation integrity of hMPV A F protein mutants were evaluated by thermal stress experiments. Crude cell culture supernatants were normalized based on the results of the titer quantitation and then incubated for 1 hour at room temperature and two higher temperatures. […] Anti-Human IgG Fc Capture (AHC) biosensors were first equilibrated in PB before being dipped into more PB to establish the initial baseline. […] The mAb-bound biosensors were then dipped into the thermal stressed cell culture supernatants for 5 minutes. The kinetics analysis was done by OCTET data analysis software (version 12.0, Sartorius) based on curve fitting of the entire associate step.
# hMPV062 = molecular target: T16, hMPV062 (hMPV A, UniProt Q6WB98 19-102); assay: BLI, no stress
# T16 construct: G121A
# Method: as §3, §4
# hMPV071 = molecular target: T17, hMPV071 (hMPV A, UniProt Q6WB98 19-102); assay: BLI, no stress
# T17 construct: T365I
# Method: as §3, §4
# hMPV067 = molecular target: T18, hMPV067 (hMPV A, UniProt Q6WB98 19-102); assay: BLI, no stress
# T18 construct: S149T
# Method: as §3, §4
# hMPV063 = molecular target: T19, hMPV063 (hMPV A, UniProt Q6WB98 19-102); assay: BLI, no stress
# T19 construct: G239A
# Method: as §3, §4
# hMPV A F WT Control = hMPV A F WT Control (hMPV A, UniProt Q6WB98 19-102); assay: BLI, no stress
# Method: as §3, §4
# hMPV044 = molecular target: T20, hMPV044 (hMPV A, UniProt Q6WB98 19-102); assay: BLI, no stress
# T20 construct: T411C-Q434C
# Method: as §3, §4
# hMPV061 = molecular target: T21, hMPV061 (hMPV A, UniProt Q6WB98 19-102); assay: BLI, no stress
# T21 construct: G106A
# Method: as §3, §4
# hMPV055 = molecular target: T22, hMPV055 (hMPV A, UniProt Q6WB98 19-102); assay: BLI, no stress
# T22 construct: N145P
# Method: as §3, §4
# hMPV066 = molecular target: T23, hMPV066 (hMPV A, UniProt Q6WB98 19-102); assay: BLI, no stress
# T23 construct: T49I
# Method: as §3, §4
# hMPV068 = molecular target: T24, hMPV068 (hMPV A, UniProt Q6WB98 19-102); assay: BLI, no stress
# T24 construct: A159V
# Method: as §3, §4
# hMPV049 = molecular target: T25, hMPV049 (hMPV A, UniProt Q6WB98 19-102); assay: BLI, no stress
# T25 construct: E146C-T160C
# Method: as §3, §4
# hMPV043 = molecular target: T26, hMPV043 (hMPV A, UniProt Q6WB98 19-102); assay: BLI, no stress
# T26 construct: G366C-D454C
# Method: as §3, §4
# hMPV053 = molecular target: T27, hMPV053 (hMPV A, UniProt Q6WB98 19-102); assay: BLI, no stress
# T27 construct: L110P
# Method: as §3, §4
# hMPV069 = molecular target: T28, hMPV069 (hMPV A, UniProt Q6WB98 19-102); assay: BLI, no stress
# T28 construct: S291I
# Method: as §3, §4
# hMPV058 = molecular target: T29, hMPV058 (hMPV A, UniProt Q6WB98 19-102); assay: BLI, no stress
# T29 construct: L187P
# Method: as §3, §4
# hMPV052 = molecular target: T30, hMPV052 (hMPV A, UniProt Q6WB98 19-102); assay: BLI, no stress
# T30 construct: L66P
# Method: as §3, §4
# hMPV060 = molecular target: T31, hMPV060 (hMPV A, UniProt Q6WB98 19-102); assay: BLI, no stress
# T31 construct: A459P
# Method: as §3, §4
# hMPV045 = molecular target: T32, hMPV045 (hMPV A, UniProt Q6WB98 19-102); assay: BLI, no stress
# T32 construct: I137C-A159C
# Method: as §3, §4
# hMPV048 = molecular target: T33, hMPV048 (hMPV A, UniProt Q6WB98 19-102); assay: BLI, no stress
# T33 construct: L141C-A161C
# Method: as §3, §4
# hMPV047 = molecular target: T34, hMPV047 (hMPV A, UniProt Q6WB98 19-102); assay: BLI, no stress
# T34 construct: L141C-A159C
# Method: as §3, §4
# hMPV050 = molecular target: T35, hMPV050 (hMPV A, UniProt Q6WB98 19-102); assay: BLI, no stress
# T35 construct: V148C-L158C
# Method: as §3, §4
binder,measurement,setting,value
B1,Response Shift,hMPV119,0.828 nm
same,Response Shift,hMPV130,0.62 nm
same,Response Shift,hMPV118,0.801 nm
same,Response Shift,hMPV123,0.559 nm
same,Response Shift,hMPV B F WT Control [1],0.122 nm
same,Response Shift,hMPV101,0.649 nm
same,Response Shift,hMPV107,0.519 nm
same,Response Shift,hMPV100,0.779 nm
same,Response Shift,hMPV102,0.007 nm
same,Response Shift,hMPV106,0.397 nm
same,Response Shift,hMPV108,0.04 nm
same,Response Shift,hMPV104,-0.11 nm
same,Response Shift,hMPV105,0.064 nm
same,Response Shift,hMPV103,0.041 nm
same,Response Shift,hMPV B F WT Control [2],0.005 nm
same,Response Shift,hMPV075,0.802 nm
same,Response Shift,hMPV062,0.774 nm
same,Response Shift,hMPV071,0.76 nm
same,Response Shift,hMPV067,0.677 nm
same,Response Shift,hMPV063,0.854 nm
same,Response Shift,hMPV A F WT Control,0.782 nm
same,Response Shift,hMPV044,0.797 nm
same,Response Shift,hMPV061,0.73 nm
same,Response Shift,hMPV055,0.627 nm
same,Response Shift,hMPV066,0.767 nm
same,Response Shift,hMPV068,0.783 nm
same,Response Shift,hMPV049,0.7 nm
same,Response Shift,hMPV043,0.636 nm
same,Response Shift,hMPV053,0.717 nm
same,Response Shift,hMPV069,0.747 nm
same,Response Shift,hMPV058,0.709 nm
same,Response Shift,hMPV052,0.739 nm
same,Response Shift,hMPV060,0.769 nm
same,Response Shift,hMPV045,0.582 nm
same,Response Shift,hMPV048,0.585 nm
same,Response Shift,hMPV047,0.268 nm
same,Response Shift,hMPV050,0.669 nm
